Results published in the nanobody polyreactivity screen of Harvey et al. (2022).

Assay: yeast display, Sf9 membrane polyspecificity reagent, FACS + sequencing; frameworks hold sequencing errors
Procedure, shortened: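 In a synthetic yeast display library (Saccharomyces cerevisiae BJ5465), nanobody expression was induced with galactose for 36–48 hours. FACS gates were set low and high (top ~1%) using anti-HA fluorescence for expression and streptavidin fluorescence for binding of the Sf9 membrane reagent. Each polyreactivity label is drawn from the gate of origin.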

Sequence	polyreactivity (PSR sort gate)
QVQLVESGGGLVQAGGSLRLSCAASGSIFSYYAMGWYRQAPGKERELVAAISKRGASTYYADSVKGRFTISRDIAKNTVYLQMNSLKPEDTAVYYCAGYRQGSAYDYWGQGTQVTVSS	high polyreactivity
QVQLVESGGGLVQAGGSLRLSCAASGSIFSYYAMGWYRQAPGKERELVAAISWGDDSTYYADSVKGRFTISRDNAKNTVYLQMNSLKPEDTAVYYCAADRVGWYRTFDYWGQGTQVTVSS	low polyreactivity
QVQLVESGGGLVQAGGSLRLSCAASGSIFSYYAMGWYRQAPGKERELVAAISWNGGRTYYADSVKGRFTISRDNAMNTVFLQMNSLKPEDTAVYYCNAVKVYSYGLYGYWGQGTQVTVSS	high polyreactivity
QVQLVESGGGLVQAGGSLRLSCAASGSIFSYYAMGWYRQAPGKERELVAAITGGGTTNYADSVKGRFTISRDNAKNTDYLQMNSLKPEDTAVYYCAADEPDVFAPGLYYWGQGTQVTLSS	low polyreactivity
QVQLVESGGGLVQAGGSLRLSCAASGSIFSYYTMGWYRPAPGKERELVAAISYSGGRTYYADSVKGRFTISRDNAKNTVYLQMNSLKTEDTAVYYCSAKLLQLRGRGYEYWGQGTQVTVSS	high polyreactivity
QVQLVESGGGLVQAGGSLRLSCAASGSIFSYYTMGWYRQAPGTERELVAASTRGGRTSYADSVKGRFTISRDNAKNTVYLQMNSLKPEDTAVYYCAADYWYFTHQLSTYGDNYWGQGTQVTVSS	low polyreactivity
QVQLVESGGGLVQAGGSLRLSCAASGSIFSYYVMGWYRQAPGKERELVAAISWSGGSTYYADSVKGRFTISRDNSKNTVYLQMNSLKPEDTAVYYCAAGTYPYYWGQGTQVTVSS	low polyreactivity
QVQLVESGGGLVQAGGSLRLSCAASGSIFSYYVMGWYRQAPGTERELVAAISYSGGRTYYADSVKGRFTISRDNAKNTVYLQMNSLKPEDTAVYYCAASRRVGEVSYYYWGQGTQVTVSS	high polyreactivity
QVQLVESGGGLVQAGGSLRLSCAASGSIFTANAMGWYRQAPGKERELVAAISRSGGNTYYADSVKGRFTISRDNAKNTVYLQMNSLKPEDTAVYYCAARQKGTGNYWGQGTQVTVSS	high polyreactivity
QVQLVESGGGLVQAGGSLRLSCAASGSIFTAYAMGWYRQAPGKERELVAAITTSGDSTYYADSVKGRFTISRDNAKNTVYLQMNSLKPEDTAVYYCAAEYYSYRITTYDYWGQGTQVTVSS	high polyreactivity
QVQLVESGGGLVQAGGSLRLSCAASGSIFTDNVMGWYSQAPGKERELVAAITYSAASTYYADSVKGRFTISRDNAKNTVYLQMNSLKPEDTAVYYCNARIIYRKWLFRSGTFNYWGQGTQVTVSS	low polyreactivity
QVQLVESGGGLVQAGGSLRLSCAASGSIFTDYAMGWYRQAPGKERELVATITWSDASTYYTDSVKGRFTISRDNAKNTVYLQMNSLIPEDTAVYYCARRSRYSKGYDYWGQGTQVTVSS	low polyreactivity
QVQLVESGGGLVQAGGSLRLSCAASGSIFTEDAMGWYRQAPGKERELVAAISWSGATTYYADSVKGRFTISRDKAKNPVDLQMNSLKPEDTAVYYCAARWANRSYEYWGQGTQVTVSS	low polyreactivity
QVQLVESGGGLVQAGGSLRLSCAASGSIFTFNAMGWYRQAPGKERELDAGISWRTSSTSYADSVKGRFTNSRDNAKNTVYLQMNSLKPEDTAVYYCATEDSWGYEEVDYWGQGTQVTVSS	low polyreactivity
QVQLVESGGGLVQAGGSLRLSCAASGSIFTFNTMGWYRQAPGKERELVATISSGGRTYYADSVKGRFTISRDNAKNTVYLQMNSLKPEDTAVYYCNKGYYGYTYVEYNYWGQGTQVTVSS	low polyreactivity
QVQLVESGGGLVQAGGSLRLSCAASGSIFTFYAMGWYRQAPGKERELVAAISKGGDRTYYADSVKGRFTISRDNAKNTVYLQMNSLIPEDTAVYYCARLVRPGRFGDGDYWGQGTQVTVSS	low polyreactivity
